# Measured values published in PMC12583694, “RNF114 and RNF166 exemplify reader-writer E3 ligases that extend K11 polyubiquitin onto sites of MARUbylation” (The EMBO Journal, 2025).
# Assays:
# [1] = target: T1, Ub-ADPr-TAMRA (fluorescent ester-linked Ub-ADPr conjugate) (human, UniProt P0CG47 1-76, C-terminus ester-linked to ADP-ribose (OP-ADPr, compound 8) that carries TAMRA (CuAAC with TAMRA-azide)); experiment: fluorescence polarisation; TAMRA-labelled substrate fixed, unlabelled protein at a range of concentrations, mixed 1:1; 22 °C; 25 mM HEPES pH 7.4, 150 mM NaCl, 0.1 mg/mL BSA, 1 mM TCEP; 10 µL in 384-well plate; Kd by nonlinear regression of duplicate datasets (GraphPad Prism 10); settings: both partners purified
# T1 construct: ubiquitin, human (pET17b-Ub), wild type; observed mass of Ub 8564.4 Da; also called MARUbe probe; source: Ub purified as previously reported (Warren et al, 2023); coupled to OP-ADPr with DTX2, purified (Resource S), clicked to TAMRA-azide, purified (size exclusion)
# Ub-Lys-TAMRA = target: T2, Ub-Lys-TAMRA (UniProt P0CG47 1-76, Ub is isopeptide-linked to a TAMRA-labeled Lys-Gly dipeptide (at the Ub C-terminus)); experiment: as above; settings: both partners purified
# T2 construct: ubiquitin (the cut product of the polyubiquitin precursor); source: generated previously (Geurink et al, 2012)
Binder,binding result [1],binding result (Ub-Lys-TAMRA),Kd [1],Kd (Ub-Lys-TAMRA)
"RNF166 (enzyme, human, UniProt Q96A37 1-237, looked up, RNF166, human, RING-type E3 ubiquitin ligase; synthesised DNA cloned into pOPIN-B (N-terminal His-3C fusion); No tag cleavage described; source: E. coli Rosetta, purified (Cobalt resin, gel filtration)) MAMFRSLVASAQQRQPPAGPAGGDSGLEAQYTCPICLEVYHRPVAIGSCGHTFCGECLQPCLQVPSPLCPLCRLPFDPKKVDKATHVEKQLSSYKAPCRGCNKKVTLAKMRVHISSCLKVQEQMANCPKFVPVVPTSQPIPSNIPNRSTFACPYCGARNLDQQELVKHCVESHRSDPNRVVCPICSAMPWGDPSYKSANFLQHLLHRHKFSYDTFVDYSIDEEAAFQAALALSLSEN",binds,,,
"RNF138 (enzyme, human, UniProt Q8WVD3 1-245, looked up, RNF138, human, RING-type E3 ubiquitin ligase; synthesised DNA cloned into pOPIN-S3C (N-terminal His-SUMO-3C fusion); No tag cleavage described; source: E. coli Rosetta, purified (Cobalt resin, gel filtration; buffers at pH 8.0)) MAEDLSAATSYTEDDFYCPVCQEVLKTPVRTTACQHVFCRKCFLTAMRESGAHCPLCRGNVTRRERACPERALDLENIMRKFSGSCRCCAKQIKFYRMRHHYKSCKKYQDEYGVSSIIPNFQISQDSVGNSNRSETSTSDNTETYQENTSSSGHPTFKCPLCQESNFTRQRLLDHCNSNHLFQIVPVTCPICVSLPWGDPSQITRNFVSHLNQRHQFDYGEFVNLQLDEETQYQTAVEESFQVNI",binds,,,
"AF1521 macrodomain (natural protein, UniProt O28751 1-192, looked up, plasmid GST-AF1521 (gift from M. Nielsen); also called GST-AF1521; source: purified as previously reported (Kamata et al, 2019)) MEVLFEAKVGDITLKLAQGDITQYPAKAIVNAANKRLEHGGGVAYAIAKACAGDAGLYTEISKKAMREQFGRDYIDHGEVVVTPAMNLEERGIKYVFHTVGPICSGMWSEELKEKLYKAFLGPLEKAEEMGVESIAFPAVSAGIYGCDLEKVVETFLEAVKNFKGSAVKEVALVIYDRKSAEVALKVFERSL",binds,binds,,
"RNF114 M-UBD construct (residues 137–228) (domain or fragment, RNF114, human, residues 137-228 (RING domain and associated disordered regions removed); No tag cleavage described; also called tandem Di19-UIM module; source: E. coli Rosetta, purified (Cobalt resin, gel filtration)) not shown",,binds,,
"RNF114 (wild type, full-length) (enzyme, human, UniProt Q9Y508 1-228, looked up, RNF114, human, RING-type E3 ubiquitin ligase; synthesised DNA cloned into pOPIN-B (N-terminal His-3C fusion); The methods describe no cleavage of the His-3C tag; also called WT RNF114; source: E. coli Rosetta, purified (Cobalt resin, gel filtration)) MAAQQRDCGGAAQLAGPAAEADPLGRFTCPVCLEVYEKPVQVPCGHVFCSACLQECLKPKKPVCGVCRSALAPGVRAVELERQIESTETSCHGCRKNFFLSKIRSHVATCSKYQNYIMEGVKATIKDASLQPRNVPNRYTFPCPYCPEKNFDQEGLVEHCKLFHSTDTKSVVCPICASMPWGDPNYRSANFREHIQRRHRFSYDTFVDYDVDEEDMMNQVLQRSIIDQ",,,12.8 µM,~20 µM
"RNF114 F206E (enzyme, human, UniProt Q9Y508 1-228, looked up, RNF114, human, with a mutation in the linker between Di19 and UIM (modelled contact with the Ub I36 patch); Made by site-directed mutagenesis of pOPINB-RNF114 WT; no tag cleavage described; source: E. coli Rosetta, purified (Cobalt resin, gel filtration)) MAAQQRDCGGAAQLAGPAAEADPLGRFTCPVCLEVYEKPVQVPCGHVFCSACLQECLKPKKPVCGVCRSALAPGVRAVELERQIESTETSCHGCRKNFFLSKIRSHVATCSKYQNYIMEGVKATIKDASLQPRNVPNRYTFPCPYCPEKNFDQEGLVEHCKLFHSTDTKSVVCPICASMPWGDPNYRSANFREHIQRRHRFSYDTEVDYDVDEEDMMNQVLQRSIIDQ",binds,binds,,
"RNF114 R198E (enzyme, human, UniProt Q9Y508 1-228, looked up, Made by site-directed mutagenesis of pOPINB-RNF114 WT; no tag cleavage described; source: E. coli Rosetta, purified (Cobalt resin, gel filtration)) MAAQQRDCGGAAQLAGPAAEADPLGRFTCPVCLEVYEKPVQVPCGHVFCSACLQECLKPKKPVCGVCRSALAPGVRAVELERQIESTETSCHGCRKNFFLSKIRSHVATCSKYQNYIMEGVKATIKDASLQPRNVPNRYTFPCPYCPEKNFDQEGLVEHCKLFHSTDTKSVVCPICASMPWGDPNYRSANFREHIQREHRFSYDTFVDYDVDEEDMMNQVLQRSIIDQ",binds,binds,,
"RNF114 ΔUIM^ext (domain or fragment, human, UniProt Q9Y508 1-200, looked up, RNF114, human, truncated version that ends immediately after the Di19 domain at residue 200; No tag cleavage described; source: E. coli Rosetta, purified (Cobalt resin, gel filtration)) MAAQQRDCGGAAQLAGPAAEADPLGRFTCPVCLEVYEKPVQVPCGHVFCSACLQECLKPKKPVCGVCRSALAPGVRAVELERQIESTETSCHGCRKNFFLSKIRSHVATCSKYQNYIMEGVKATIKDASLQPRNVPNRYTFPCPYCPEKNFDQEGLVEHCKLFHSTDTKSVVCPICASMPWGDPNYRSANFREHIQRRHR",binds,,,
